In the Human Domainome abundance scans (Beltran et al. 2025):
± gives the uncertainty stated by the source.

B1: Zinc finger homeobox protein 4, residues 2086 to 2141; numbered along this chain, Q86UP3 (parent)
chain: RPRTRITDDQLKILRAYFDINNSPSEEQIQEMAEKSGLSQKVIKHWFRNTLFKERQ

Variants of: B1
Assay: abundance fitness (aPCA) (normalised: wild type 0, dead -1); higher = more abundant; growth selection in yeast, the domain comes from the species named
Conditions: Homo sapiens

Variant	abundance fitness
RPRTRITDDQLKILPAYFDINNSPSEEQIQEMAEKSGLSQKVIKHWFRNTLFKERQ [R15P]	-0.939 ± 0.12
RPRTRITDDQLKILVAYFDINNSPSEEQIQEMAEKSGLSQKVIKHWFRNTLFKERQ [R15V]	-0.151 ± 0.073
RPRTRITDDQLKILIAYFDINNSPSEEQIQEMAEKSGLSQKVIKHWFRNTLFKERQ [R15I]	-0.296 ± 0.16
RPRTRITDDQLKILWAYFDINNSPSEEQIQEMAEKSGLSQKVIKHWFRNTLFKERQ [R15W]	-0.133 ± 0.081
RPRTRITDDQLKILFAYFDINNSPSEEQIQEMAEKSGLSQKVIKHWFRNTLFKERQ [R15F]	-0.245 ± 0.16
RPRTRITDDQLKILRAYFGINNSPSEEQIQEMAEKSGLSQKVIKHWFRNTLFKERQ [D19G]	-0.089 ± 0.067
RPRTRITDDQLKILRAYFHINNSPSEEQIQEMAEKSGLSQKVIKHWFRNTLFKERQ [D19H]	-0.333 ± 0.12
RPRTRITDDQLKILRAYFSINNSPSEEQIQEMAEKSGLSQKVIKHWFRNTLFKERQ [D19S]	0.142 ± 0.085
RPRTRITDDQLKILRAYFPINNSPSEEQIQEMAEKSGLSQKVIKHWFRNTLFKERQ [D19P]	-0.149 ± 0.11
RPRTRITDDQLKILRAYFQINNSPSEEQIQEMAEKSGLSQKVIKHWFRNTLFKERQ [D19Q]	0.029 ± 0.11
RPRTRITDDQLKILRAYFTINNSPSEEQIQEMAEKSGLSQKVIKHWFRNTLFKERQ [D19T]	-0.104 ± 0.11
RPRTRITDDQLKILRAYFNINNSPSEEQIQEMAEKSGLSQKVIKHWFRNTLFKERQ [D19N]	0.07 ± 0.15
RPRTRITDDQLKILRAYFFINNSPSEEQIQEMAEKSGLSQKVIKHWFRNTLFKERQ [D19F]	-0.196 ± 0.14
RPRTRITDDQLKILRAYFMINNSPSEEQIQEMAEKSGLSQKVIKHWFRNTLFKERQ [D19M]	-0.033 ± 0.095
RPRTRITDDQLKILRAYFLINNSPSEEQIQEMAEKSGLSQKVIKHWFRNTLFKERQ [D19L]	0.086 ± 0.079
RPRTRITDDQLKILRAYFRINNSPSEEQIQEMAEKSGLSQKVIKHWFRNTLFKERQ [D19R]	-0.009 ± 0.068
RPRTRITDDQLKILRAYFYINNSPSEEQIQEMAEKSGLSQKVIKHWFRNTLFKERQ [D19Y]	-0.001 ± 0.15
RPRTRITDDQLKILRAYFIINNSPSEEQIQEMAEKSGLSQKVIKHWFRNTLFKERQ [D19I]	-0.061 ± 0.16
RPRTRITDDQLKILRAYFCINNSPSEEQIQEMAEKSGLSQKVIKHWFRNTLFKERQ [D19C]	-0.072 ± 0.11
RPRTRITDDQLKILRAYFAINNSPSEEQIQEMAEKSGLSQKVIKHWFRNTLFKERQ [D19A]	0.011 ± 0.082
RPRTRITDDQLKILRAYFVINNSPSEEQIQEMAEKSGLSQKVIKHWFRNTLFKERQ [D19V]	-0.071 ± 0.077
RPRTRITDDQLKILRAYFEINNSPSEEQIQEMAEKSGLSQKVIKHWFRNTLFKERQ [D19E]	0.054 ± 0.092
RPRTRITDDQLKILRAYFKINNSPSEEQIQEMAEKSGLSQKVIKHWFRNTLFKERQ [D19K]	0.082 ± 0.13
RPRTRITDDQLKILRARFDINNSPSEEQIQEMAEKSGLSQKVIKHWFRNTLFKERQ [Y17R]	-0.114 ± 0.078

Variant	abundance fitness
RPRTRITDDQLKILRANFDINNSPSEEQIQEMAEKSGLSQKVIKHWFRNTLFKERQ [Y17N]	0.041 ± 0.088
RPRTRITDDQLKILRACFDINNSPSEEQIQEMAEKSGLSQKVIKHWFRNTLFKERQ [Y17C]	-0.192 ± 0.08
RPRTRITDDQLKILRAFFDINNSPSEEQIQEMAEKSGLSQKVIKHWFRNTLFKERQ [Y17F]	0.025 ± 0.088
RPRTRITDDQLKILRALFDINNSPSEEQIQEMAEKSGLSQKVIKHWFRNTLFKERQ [Y17L]	-0.159 ± 0.065
RPRTRITDDQLKILRASFDINNSPSEEQIQEMAEKSGLSQKVIKHWFRNTLFKERQ [Y17S]	-0.227 ± 0.072
RPRTRITDDQLKILRAMFDINNSPSEEQIQEMAEKSGLSQKVIKHWFRNTLFKERQ [Y17M]	0.076 ± 0.1
RPRTRITDDQLKILRAIFDINNSPSEEQIQEMAEKSGLSQKVIKHWFRNTLFKERQ [Y17I]	-0.155 ± 0.085
RPRTRITDDQLKILRATFDINNSPSEEQIQEMAEKSGLSQKVIKHWFRNTLFKERQ [Y17T]	-0.058 ± 0.088
RPRTRITDDQLKILRAAFDINNSPSEEQIQEMAEKSGLSQKVIKHWFRNTLFKERQ [Y17A]	-0.16 ± 0.091
RPRTRITDDQLKILRAPFDINNSPSEEQIQEMAEKSGLSQKVIKHWFRNTLFKERQ [Y17P]	-0.963 ± 0.12
RPRTRITDDQLKILRADFDINNSPSEEQIQEMAEKSGLSQKVIKHWFRNTLFKERQ [Y17D]	-0.16 ± 0.11
RPRTRITDDQLKILRAGFDINNSPSEEQIQEMAEKSGLSQKVIKHWFRNTLFKERQ [Y17G]	-0.075 ± 0.088
RPRTRITDDQLKILRAHFDINNSPSEEQIQEMAEKSGLSQKVIKHWFRNTLFKERQ [Y17H]	-0.045 ± 0.08
RPRTRITDDQLKILRAQFDINNSPSEEQIQEMAEKSGLSQKVIKHWFRNTLFKERQ [Y17Q]	-0.089 ± 0.1
RPRTRITDDQLKILRAVFDINNSPSEEQIQEMAEKSGLSQKVIKHWFRNTLFKERQ [Y17V]	-0.204 ± 0.079
RPRTRITDDQLKILRAWFDINNSPSEEQIQEMAEKSGLSQKVIKHWFRNTLFKERQ [Y17W]	-0.299 ± 0.097
RPRTRITDDQLKILRAYFDDNNSPSEEQIQEMAEKSGLSQKVIKHWFRNTLFKERQ [I20D]	-0.276 ± 0.11
RPRTRITDDQLKILRAYFDANNSPSEEQIQEMAEKSGLSQKVIKHWFRNTLFKERQ [I20A]	0.105 ± 0.079
RPRTRITDDQLKILRAYFDGNNSPSEEQIQEMAEKSGLSQKVIKHWFRNTLFKERQ [I20G]	-0.03 ± 0.066
RPRTRITDDQLKILRAYFDHNNSPSEEQIQEMAEKSGLSQKVIKHWFRNTLFKERQ [I20H]	-0.134 ± 0.12
RPRTRITDDQLKILRAYFDENNSPSEEQIQEMAEKSGLSQKVIKHWFRNTLFKERQ [I20E]	0.015 ± 0.12
RPRTRITDDQLKILRAYFDCNNSPSEEQIQEMAEKSGLSQKVIKHWFRNTLFKERQ [I20C]	-0.095 ± 0.084
RPRTRITDDQLKILRAYFDFNNSPSEEQIQEMAEKSGLSQKVIKHWFRNTLFKERQ [I20F]	-0.006 ± 0.09
